Test results published in patent US20220289837A1 (VIB VZW, published 2022).

How the values were obtained:
[1] = biological target: T1, 2PT-NBD1 (human CFTR nucleotide-binding domain 1, residues 387-646, with S492P, A534P, I539T) (human, UniProt P13569 388-646, biotinylated for the ELISA (sites not given)); assay: ELISA, biotinylated 2PT-NBD1 on avidin-coated plate, D12 titrated
T1 construct: N-terminal His6-SUMO tag removed with Ulp1; In the T2a-T4 and T27 crystals the domain was cut by papain or subtilisin
T1 sequence (P13569 388-646 V470M/S492P/A534P/I539T limits assumed): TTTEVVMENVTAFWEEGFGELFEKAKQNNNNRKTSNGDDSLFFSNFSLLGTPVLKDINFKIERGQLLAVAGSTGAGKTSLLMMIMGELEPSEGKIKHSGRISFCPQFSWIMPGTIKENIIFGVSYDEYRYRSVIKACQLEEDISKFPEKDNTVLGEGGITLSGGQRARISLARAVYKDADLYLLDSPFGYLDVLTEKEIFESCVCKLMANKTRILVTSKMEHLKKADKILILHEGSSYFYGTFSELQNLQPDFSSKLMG
Text: (§1) The location of these nanobodies completely overlaps (FIG. 11a) with that of the C-terminal regulatory extension (RE) observed in previously published structures of NBD1^{[25,26].} The RE segment, comprising residues 654-673 was removed from the 2PT-NBD1 construct used for immunization and characterization. While the functional role of the RE is still unclear, it has been described to be a very mobile domain^{[27]}. […] This is consistent with RE being a dynamic region of CFTR.
(§2) For dose-response assays, Nunc MaxiSorp 96-well plates (ThermoScientific), were coated with 5 μg/ml NeutrAvidin Biotin-Binding protein (ThermoScientific) overnight at 4° C. and blocked 2 h at room temperature (RT) with 2% milk in phosphate-buffered saline (PBS). Each new reagent addition was preceded by three washes with 200 μl of NBD1 buffer (20 mM HEPES pH 7.5, 150 mM NaCl, and 10% (w/v) glycerol, 10% (w/v) ethylene glycol, 2 mM ATP, 3 mM MgCl₂). Then, biotinylated purified NBD1 proteins at 5 μg/ml were immobilized 30 min at RT followed by 1 h RT incubation with 100 μl various concentrations (0-20 μg/ml) of purified nanobodies. […] 50 μl of 1-Step UltraTMB-ELISA (ThermoScientific) was used as a substrate for the peroxidase and intensity of the reaction was proportional to absorbance measured at 450 nm with SynergyMx (BioTek) after addition of 50 μl H₂SO₄ at 1M.

[2] = biological target: T1, 2PT-NBD1 (human CFTR nucleotide-binding …); assay: ELISA, biotinylated 2PT-NBD1 on avidin-coated plate, nanobody titrated, anti-His detection; column head 'pEC50 (M)'
Procedure: (§3) (a) Nanobody binding to 2PT-NBD1 measured by ELISA. Biotinylated 2PT-NBD1 was immobilized on avidin-coated plates and incubated with increasing concentration of each nanobody. Binding of nanobody was followed by immunodetection of the His-tag (see Methods). Representative curve of 3 independent experiments is shown. Error bars represent the standard deviation (SD) of duplicates. Data were normalized to maximum signal for each nanobody separately. (b) Nanobody binding to F508del-2PT-NBD1 measured by ELISA as described in panel a. (c) Nanobody T4 binding to 2PT-NBD1 and F508del-2PT-NBD1. Data were normalized to maximum signal of T4 binding to 2PT-NBD1. (d) Nanobody T8 binding to 2PT-NBD1 and F508del-2PT-NBD1. Data were normalized to maximum signal of T8 binding to 2PT-NBD1.
(§4) For dose-response assays, Nunc MaxiSorp 96-well plates (ThermoScientific), were coated with 5 μg/ml NeutrAvidin Biotin-Binding protein (ThermoScientific) overnight at 4° C. and blocked 2 h at room temperature (RT) with 2% milk in phosphate-buffered saline (PBS). Each new reagent addition was preceded by three washes with 200 μl of NBD1 buffer (20 mM HEPES pH 7.5, 150 mM NaCl, and 10% (w/v) glycerol, 10% (w/v) ethylene glycol, 2 mM ATP, 3 mM MgCl₂). Then, biotinylated purified NBD1 proteins at 5 μg/ml were immobilized 30 min at RT followed by 1 h RT incubation with 100 μl various concentrations (0-20 μg/ml) of purified nanobodies. Signal detection was followed using His-tag specific antibody (Invitrogen, catalogue number: MA1-135, 1:3000 dilution) to detect the nanobodies and secondary antibody anti-mouse coupled to horse radish peroxidase (HRP) (Millipore, catalogue number: AP308P, 1:5000 dilution). 50 μl of 1-Step UltraTMB-ELISA (ThermoScientific) was used as a substrate for the peroxidase and intensity of the reaction was proportional to absorbance measured at 450 nm with SynergyMx (BioTek) after addition of 50 μl H₂SO₄ at 1M.

[3] = biological target: T1, 2PT-NBD1 (human CFTR nucleotide-binding …); assay: cell-based or functional assay
[4] = biological target: Purified human wt-CFTR (His10-SUMO*-CFTRFLAG-EGFP), PKA phosphorylated (human, UniProt P13569 1-1480, PKA phosphorylated (sites not given)); assay: cell-based or functional assay
Purified human wt-CFTR (His10-SUMO*-CFTRFLAG-EGFP), PKA phosphorylated, sequence (P13569 whole entry, the tested form may be a part): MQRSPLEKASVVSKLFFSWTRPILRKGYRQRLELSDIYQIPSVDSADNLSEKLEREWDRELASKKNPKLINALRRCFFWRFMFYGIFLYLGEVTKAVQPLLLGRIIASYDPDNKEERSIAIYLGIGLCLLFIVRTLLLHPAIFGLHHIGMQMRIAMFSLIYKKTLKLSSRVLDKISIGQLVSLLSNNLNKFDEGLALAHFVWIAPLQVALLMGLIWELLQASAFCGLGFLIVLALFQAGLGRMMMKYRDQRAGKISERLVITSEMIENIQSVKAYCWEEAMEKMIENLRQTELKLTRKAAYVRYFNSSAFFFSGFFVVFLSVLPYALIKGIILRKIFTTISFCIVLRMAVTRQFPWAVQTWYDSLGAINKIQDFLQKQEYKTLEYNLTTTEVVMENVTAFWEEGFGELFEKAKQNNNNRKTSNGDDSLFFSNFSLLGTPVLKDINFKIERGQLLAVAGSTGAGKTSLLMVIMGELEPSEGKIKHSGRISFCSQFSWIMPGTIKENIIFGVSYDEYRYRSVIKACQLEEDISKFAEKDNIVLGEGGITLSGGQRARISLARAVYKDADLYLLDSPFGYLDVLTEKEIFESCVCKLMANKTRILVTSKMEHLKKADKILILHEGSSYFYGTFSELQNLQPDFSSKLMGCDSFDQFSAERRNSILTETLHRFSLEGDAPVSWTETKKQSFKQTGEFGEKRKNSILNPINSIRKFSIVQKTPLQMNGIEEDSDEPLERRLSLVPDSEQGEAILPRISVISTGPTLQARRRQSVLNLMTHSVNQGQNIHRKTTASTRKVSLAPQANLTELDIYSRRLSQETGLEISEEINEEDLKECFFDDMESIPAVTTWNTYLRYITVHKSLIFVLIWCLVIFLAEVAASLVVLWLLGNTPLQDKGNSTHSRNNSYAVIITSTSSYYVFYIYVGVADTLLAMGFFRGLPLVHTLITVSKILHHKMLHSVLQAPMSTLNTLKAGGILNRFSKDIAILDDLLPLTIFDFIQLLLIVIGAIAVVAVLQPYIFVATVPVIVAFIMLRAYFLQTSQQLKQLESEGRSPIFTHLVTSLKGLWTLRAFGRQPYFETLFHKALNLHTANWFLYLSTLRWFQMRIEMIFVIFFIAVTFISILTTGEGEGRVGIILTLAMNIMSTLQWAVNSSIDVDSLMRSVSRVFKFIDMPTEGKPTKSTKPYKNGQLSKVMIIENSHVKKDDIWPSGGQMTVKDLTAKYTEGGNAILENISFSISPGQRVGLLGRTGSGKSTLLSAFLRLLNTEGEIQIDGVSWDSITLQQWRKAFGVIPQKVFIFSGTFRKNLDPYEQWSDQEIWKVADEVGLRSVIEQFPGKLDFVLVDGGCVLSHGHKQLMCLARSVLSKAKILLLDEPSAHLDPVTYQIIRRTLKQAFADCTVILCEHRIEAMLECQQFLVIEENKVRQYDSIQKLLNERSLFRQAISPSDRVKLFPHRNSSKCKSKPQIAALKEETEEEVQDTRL

[5] = biological target: T2, 2PT-NBD1-RE (2PT-NBD1 with residues 387-678, containing the regulatory extension) (human, UniProt P13569 387-678, biotinylated for the ELISA (sites not given)); assay: ELISA, biotinylated 2PT-NBD1-RE on avidin-coated plate, D12 titrated
T2 sequence (P13569 other isoform, or with tags, fused parts or gaps limits assumed): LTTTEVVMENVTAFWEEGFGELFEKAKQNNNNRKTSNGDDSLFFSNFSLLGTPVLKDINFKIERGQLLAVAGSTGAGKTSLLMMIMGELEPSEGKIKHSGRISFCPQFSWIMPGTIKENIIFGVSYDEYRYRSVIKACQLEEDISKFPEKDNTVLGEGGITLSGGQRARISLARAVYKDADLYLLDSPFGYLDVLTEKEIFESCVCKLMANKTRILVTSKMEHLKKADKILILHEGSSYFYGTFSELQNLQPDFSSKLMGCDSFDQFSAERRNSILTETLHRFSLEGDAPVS
Text: as §1, §2

[6] = biological target: T3, F508del-2PT-NBD1 (human, UniProt P13569 388-646, biotinylated for the ELISA (sites not given)); assay: ELISA, biotinylated F508del-2PT-NBD1 on avidin-coated plate, nanobody titrated, anti-His detection
T3 construct: also called F508del-2PT-NBD1 mutant
T3 sequence (P13569 other isoform, or with tags, fused parts or gaps limits assumed, stated change not applied): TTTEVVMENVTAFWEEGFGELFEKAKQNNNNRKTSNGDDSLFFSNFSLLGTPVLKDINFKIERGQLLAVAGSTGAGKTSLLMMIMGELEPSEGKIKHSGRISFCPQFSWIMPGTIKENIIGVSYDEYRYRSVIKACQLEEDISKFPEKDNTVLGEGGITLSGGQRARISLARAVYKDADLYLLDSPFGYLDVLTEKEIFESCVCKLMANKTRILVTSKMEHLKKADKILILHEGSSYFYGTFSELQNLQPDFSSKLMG
Procedure: as §3, §4

[7] = biological target: T1, 2PT-NBD1 (human CFTR nucleotide-binding …); assay: isothermal titration calorimetry, nanobody titrated into 2PT-NBD1 at 20 °C, one-site model
Procedure: (§5) Isothermal titration calorimetry (ITC) was used to characterize the thermodynamic parameters of the binding (FIG. 1e and FIG. 9). […] These KD values are similar to those measured for other in vivo matured camelid heavy-chain antibodies interacting with their ligands^{[20]}. The thermodynamic parameters of the interaction of nanobodies with 2PT-NBD1 were determined based on these ITC measurements (FIG. 1e and FIG. 9).
(§6) Interactions between nanobodies and 2PT-NBD1 was carried out on NanoITC system (TA Instruments) in 0.165 ml cells at 20° C., 300 rpm syringe stirring. Proteins were extensively dialyzed in 20 mM Hepes buffer pH 7.5, 150 mM NaCl, 10% (w/v) glycerol, 10% (w/v) ethylene glycol, 2 mM ATP and 3 mM MgCl₂ for 16 h at 4° C. Heat of dilution from control experiments of each nanobody titrated into buffer was subtracted from the titration into 2PT-NBD1. Data were integrated analyzed with Origin 7.0 software (Origin Lab Corp.).

[8] = biological target: T1, 2PT-NBD1 (human CFTR nucleotide-binding …); assay: ITC, nanobody titrated into 2PT-NBD1 at 20 °C, one-site model
Procedure: as §5, §6

[9] = biological target: T1, 2PT-NBD1 (human CFTR nucleotide-binding …); assay: ELISA, biotinylated 2PT-NBD1 on avidin-coated plate, T27 titrated
Text: as §1, §2

[10] = biological target: T2, 2PT-NBD1-RE (2PT-NBD1 with residues …); assay: ELISA, biotinylated 2PT-NBD1-RE on avidin-coated plate, T27 titrated
Text: as §1, §2

[11] = biological target: T4, 2PT-F508del-CFTR expressed in BHK-21 cells (human, UniProt P13569 1-1480, I539T; S492P; A534P; F508del); assay: flow cytometry on permeabilised BHK-21 cells expressing 2PT-F508del-CFTR, anti-tag antibody and Alexa Fluor 488 secondary
T4 construct: Full-length F508del CFTR stabilized by the three point mutations; permeabilized cells in flow cytometry
T4 sequence (P13569 other isoform, or with tags, fused parts or gaps I539T/S492P/A534P/F508del): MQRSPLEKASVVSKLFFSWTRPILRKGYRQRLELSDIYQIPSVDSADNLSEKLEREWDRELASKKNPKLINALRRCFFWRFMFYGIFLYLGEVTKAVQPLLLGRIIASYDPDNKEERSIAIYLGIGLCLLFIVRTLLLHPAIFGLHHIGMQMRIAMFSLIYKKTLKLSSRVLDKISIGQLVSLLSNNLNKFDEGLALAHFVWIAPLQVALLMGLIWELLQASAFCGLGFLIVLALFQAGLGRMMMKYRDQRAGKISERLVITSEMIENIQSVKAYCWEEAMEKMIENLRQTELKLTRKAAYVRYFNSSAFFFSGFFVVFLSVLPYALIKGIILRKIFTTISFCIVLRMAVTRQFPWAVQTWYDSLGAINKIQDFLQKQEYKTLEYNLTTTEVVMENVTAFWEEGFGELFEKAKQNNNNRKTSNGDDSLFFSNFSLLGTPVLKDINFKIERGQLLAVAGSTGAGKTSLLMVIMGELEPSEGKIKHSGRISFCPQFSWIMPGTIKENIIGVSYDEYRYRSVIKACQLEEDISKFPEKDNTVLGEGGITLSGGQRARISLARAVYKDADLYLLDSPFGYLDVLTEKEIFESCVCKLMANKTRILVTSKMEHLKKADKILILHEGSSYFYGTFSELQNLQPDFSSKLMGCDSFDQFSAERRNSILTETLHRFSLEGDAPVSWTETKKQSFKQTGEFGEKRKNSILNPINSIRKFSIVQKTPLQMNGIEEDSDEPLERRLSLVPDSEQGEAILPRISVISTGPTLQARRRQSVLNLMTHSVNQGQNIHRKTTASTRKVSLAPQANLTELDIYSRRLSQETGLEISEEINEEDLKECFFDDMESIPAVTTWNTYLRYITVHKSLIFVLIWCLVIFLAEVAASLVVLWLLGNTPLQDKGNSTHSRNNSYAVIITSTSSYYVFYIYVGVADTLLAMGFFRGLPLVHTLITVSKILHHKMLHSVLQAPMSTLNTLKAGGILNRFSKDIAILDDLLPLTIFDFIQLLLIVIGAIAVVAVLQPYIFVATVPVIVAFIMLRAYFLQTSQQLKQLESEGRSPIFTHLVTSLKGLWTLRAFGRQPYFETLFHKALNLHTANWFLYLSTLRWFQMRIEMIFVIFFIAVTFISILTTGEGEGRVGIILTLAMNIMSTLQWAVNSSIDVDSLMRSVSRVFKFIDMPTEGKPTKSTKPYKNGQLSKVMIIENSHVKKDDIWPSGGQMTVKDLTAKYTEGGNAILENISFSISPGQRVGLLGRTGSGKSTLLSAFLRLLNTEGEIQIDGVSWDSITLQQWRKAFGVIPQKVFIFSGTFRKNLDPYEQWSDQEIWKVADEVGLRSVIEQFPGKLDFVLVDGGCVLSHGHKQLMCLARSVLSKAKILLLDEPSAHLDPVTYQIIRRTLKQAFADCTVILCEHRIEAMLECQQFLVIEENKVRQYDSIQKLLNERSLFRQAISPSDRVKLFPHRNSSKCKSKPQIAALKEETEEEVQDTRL
Text: Graph depicts one representative of at least three independent experiments. (FIG. 4F) Average median fluorescence (fold over negative control) for each of the three representative nanobodies as illustrated in (FIG. 4D) and (FIG. 4E). Quantification of at least 3 independent experiments (±SEM). (g) Immunoblot of CFTR from solubilized BHK-21 cells pulled-down with His-tagged nanobodies, including a non-CFTR nanobody as a control. Eluted nanobodies-CFTR complexes were separated by SDS-PAGE and presence of CFTR was detected with mAb 596 antibody after immunoblotting. Arrows indicate the mature (band C) and immature (band B) forms of CFTR. Representative of at least 3 independent experiments. (FIG. 4H) Flow cytometry analysis of nanobodies T2a, T8 and G3a on BHK-21 cells expressing 2PT-F508del showing increased labelling for T2a and G3a, but not T8. (FIG. 4I) Quantification of data illustrated in […]. Average of 3 independent experiments (±SEM).
Parental BHK-21 cells (ATCC; CCL-10) and cells stably overexpressing human wt-CFTR^{[43,44,47]} or 2PT-F508del-CFTR, as described above, were permeabilized with 0.01% n-Dodecyl-β-D-Maltopyranoside β-DDM—Inalco) at least for 2 h on ice. In the meantime, cells were incubated with 50 μg/ml nanobodies and DRAQ7 (0.3 μM—Biostatus) to monitor the permeabilization state. Nanobody binding was detected by using His-tag specific antibody (Invitrogen, catalogue number MA1-135, 1 μg/ml) or Myc-tag specific antibody (Invitrogen, catalogue number 13-2500, 2 μg/ml) and then anti-mouse-Alexa Fluor 488 (Invitrogen, catalogue number A11001, 1.3 μg/ml) at least for 30 min on ice. Cells were washed one time between each step by centrifugation (200×g for 5 min at 4° C.). All incubations (100 μl) and washes (1.5 ml) were performed in PBS with 6% fetal bovine serum (FBS) and 0.01%13-DDM on ice. Cells fluorescence was measured with Gallios Flow Cytometer (Beckman Coulter). Data were analyzed with Kaluza software.

[12] = biological target: T5, Stabilized human CFTR (stab-CFTR: 2PT/ΔRI/R1048A_1172X) (human, UniProt P13569 1-1171, limits assumed); assay: cell-based or functional assay
T5 sequence (P13569 other isoform, or with tags, fused parts or gaps R1048A R1048A limits assumed): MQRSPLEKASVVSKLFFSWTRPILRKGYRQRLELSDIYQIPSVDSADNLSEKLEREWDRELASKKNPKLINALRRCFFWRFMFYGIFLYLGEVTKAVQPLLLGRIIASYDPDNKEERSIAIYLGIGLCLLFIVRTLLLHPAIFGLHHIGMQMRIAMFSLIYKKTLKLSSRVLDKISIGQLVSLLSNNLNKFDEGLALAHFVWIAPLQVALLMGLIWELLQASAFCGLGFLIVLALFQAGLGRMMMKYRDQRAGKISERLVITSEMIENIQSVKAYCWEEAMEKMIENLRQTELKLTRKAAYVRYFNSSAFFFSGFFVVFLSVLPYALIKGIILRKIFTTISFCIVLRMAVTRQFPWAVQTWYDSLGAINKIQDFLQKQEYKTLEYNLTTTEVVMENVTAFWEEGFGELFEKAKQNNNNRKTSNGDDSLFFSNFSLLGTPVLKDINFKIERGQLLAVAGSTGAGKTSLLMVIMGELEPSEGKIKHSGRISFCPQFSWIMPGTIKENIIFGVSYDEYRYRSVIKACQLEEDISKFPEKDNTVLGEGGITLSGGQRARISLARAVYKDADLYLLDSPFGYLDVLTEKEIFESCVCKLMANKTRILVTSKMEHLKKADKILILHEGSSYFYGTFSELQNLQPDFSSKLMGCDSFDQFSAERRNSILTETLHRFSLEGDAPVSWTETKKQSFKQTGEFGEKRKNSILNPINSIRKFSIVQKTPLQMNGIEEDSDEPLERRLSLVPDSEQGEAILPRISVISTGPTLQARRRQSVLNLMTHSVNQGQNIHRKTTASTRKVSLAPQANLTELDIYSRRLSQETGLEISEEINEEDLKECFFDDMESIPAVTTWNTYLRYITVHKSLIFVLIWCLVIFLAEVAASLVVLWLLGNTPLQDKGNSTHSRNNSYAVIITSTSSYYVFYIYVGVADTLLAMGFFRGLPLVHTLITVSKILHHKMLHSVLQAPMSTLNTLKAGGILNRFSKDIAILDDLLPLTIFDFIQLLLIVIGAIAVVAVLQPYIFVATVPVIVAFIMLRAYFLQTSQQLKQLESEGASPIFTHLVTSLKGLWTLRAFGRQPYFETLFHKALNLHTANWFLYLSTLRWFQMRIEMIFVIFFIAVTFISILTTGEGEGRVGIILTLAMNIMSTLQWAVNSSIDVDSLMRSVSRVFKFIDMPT

[13] = biological target: T5, Stabilized human CFTR (stab-CFTR: …); assay: cell-based or functional assay; remark: listed apart in the source

EC50 (read off the curve) [1] [nM] | pEC50 [2] | ATPase activity (% of PKA-phosphorylated CFTR) [4] [%] | EC50 (read off the curve) [5] [nM] | EC50 (read off the curve) [6] [nM] | Kd [7] [nM] | ΔG [8] [kcal/mol] | ΔH [8] [kcal/mol] | EC50 (read off the curve) [9] [nM] | EC50 (read off the curve) [10] [nM] | binding result [11] | Binder | increase of Tm (thermal shift assay, DSF) [3] [°C] | Tm of stab-CFTR in complex with the nanobody (nanoDSF, first derivative of 350 nm fluorescence); 'stab-CFTR (51.4°C)', 'T4 (73.8°C)' alone [12] [°C] | thermostabilization (nanoDSF, Tm) [13] [°C]
~50 | 7.6 | 50 | ~80 | ~10 |  |  |  |  |  |  | Nanobody D12 (VHH, not shown: small tags and cut ends, Llama nanobody raised against 2PT-NBD1; produced in E. coli periplasm; also called Nb D12; D12 Nb) VHH: QVQLQESGGGLVQAGSSLRLACAATGSIRSINNMGWYRQAPGKQRGMVAIITRVGNTDYADSVKGRFTISRDNAKNTVYLQMNSLKPEDTATYYCHAEITEQSRPFYLTDDYWGQGTQVTVSS | 13.8 |  | 
 | 8.7 | 30 |  | ~2 | 25 | -10.2 | -12.1 | ~3 | ~3 |  | Nanobody T27 (VHH, not shown: small tags and cut ends, Llama nanobody; also called NbT27; T27 Nb) VHH: QVQLQESGGGLEQPGGSLRLSCATSGVIFGINAMGWYRQAPGKQRELVATFTSGGSTNYADFVEGRFTISRDNAKNTVYLQMNGLRPEDTAVYYCHATVVVSRYGLTYDYWGQGTQVTVSS | 11.9 |  | 
 | 5.8 |  |  | ~2000 | 1100 | -7.98 | -11.4 |  |  | binds | Nanobody G3a (VHH, not shown: small tags and cut ends, Llama nanobody, non-stabilizing; also called Nb G3a; G3a Nb) VHH: QVQLQESGGGLVQAGGSLRLSCTASGRAFSWYVMGWFRQAPGKEREFVATVSGNGSRRDYADSVKGRFTISRDNAKNTVYLQMNSLKPEDTAVYYCAASSTYYYTDPEKYDYWGQGTQVTVSS |  |  | 
 |  |  |  |  |  |  |  |  |  |  | Nanobody T4 (VHH, not shown: small tags and cut ends) VHH: QVQLQESGGGLVQAGGSLRLSCAASGSTFAIIAMGWYRQAPGKQRELVAVISTGDTRYADSVKGRFTISRDNAKNTVYLQMDSLRPEDTAVYYCNAAVQVRDYRNYWGQGTQVTVSS |  | 59.4 | 8
